From patent EP4631972A1, “SITE-SPECIFIC COUPLED PEGYLATED INTERLEUKIN-2 MUTANT WITH RECEPTOR AFFINITY PREFERENCE AND USE THEREOF” (priority 2022, dated 2024)

How the values were obtained:
Treg cells [1] = test: P-STAT5 activation in Treg cells of human PBMCs (flow cytometry); format: cell-based; conditions: P-STAT5 MFI in CD3+/CD4+/CD25+ cells of human PBMCs, 30 min stimulation
Method: In the example, the activation effect of each mutant prepared in Example 6 on P-STAT5 in different cell subsets (Tregs, CD8+T cells, NK cells) from human PBMCs (Miaoshun Biotechnology) was detected.
Human PBMC cells were thawed and resuspended to 1.5×10^6 cells/ml in RPMI1640 medium containing 10% FBS. 100 µl was added to each well of a V-bottom 96-well culture plate. Each IL-2 mutant prepared in Example 6 was diluted 10-fold in series: 1000 nM was used as the working concentration for the first well, and then 100 µl/well of each serial dilution was added to each cultured cell, stimulated at 37°C for 30 min, and the reaction was terminated on ice. The cells were treated with a commercial fixative and permeabilization agent (BD biosciences 558049 & 558050), and stained with antibodies against CD3, CD4, CD25, and CD8 according to conventional methods. P-STAT5 antibody staining was also performed (Table 7) to detect the mean fluorescence intensity (MFI) of P-STAT5 in CD3+/CD4+/CD25+ (Treg cells) and CD8+/CD3+ cells ([…]) by flow cytometry.

Treg cells [2] = test: Pharmacodynamic study in cynomolgus monkeys, peripheral Treg cells; format: in vivo; conditions: doses ≤400 µg/kg
Excerpt: For information on administration and grouping, see Table 14.

[3] = Pharmacokinetic study in cynomolgus monkeys; conditions: cynomolgus monkey
Method: Blood was collected before and after administration (4h, 8h, 24h, 48h, 72h, 120h, 168h, 240h, 336h) in the first cycle and after administration (8h, 24h, 48h, 72h, 120h, 168h, 240h) in the second cycle to detect plasma drug concentration.

[4] = female, first-cycle dosing 50 µg/kg s.c.
[5] = female, second-cycle dosing 400 µg/kg s.c.
[6] = male, first-cycle dosing 50 µg/kg s.c.
[7] = male, second-cycle dosing 400 µg/kg s.c.

B1: 80K-1PEG-IL2-N88R-N77C: IL-2 mutant N88R, N77C, conjugation site 77, PEG molecular weight 80kD (conjugate)
chain: APTSSSTKKTQLQLEHLLLDLQMILNGINNYKNPKLTRMLTFKFYMPKKATELKHLQCLEEELKPLEEVLNLAQSKC(PEG 80 kDa)FHLRPRDLISRINVIVLELKGSETTFMCEYADETATIVEFLNRWITFSQSIISTLT
With B1 as the molecule, how does the EC50 (Treg cells [1]) read?
The EC50 was 0.0298 µM.

What about the “activation and proliferation of peripheral blood Treg cells” value (Treg cells [2]) of the same molecule?
The value was “clear activation and proliferation”.

And the AUC inf [3, 4]?
Its AUC inf is 186.0556 µg·h/mL.

What about the AUClast [3, 4] of the same molecule?
Its AUClast is 147.9248 µg·h/mL.

And the CL [3, 4]?
Its CL is 0.27.

What about the Cmax [3, 4] of the same molecule?
Its Cmax is 0.9025692 µg/mL.

And the MRT [3, 4]?
Its MRT is 122.9092 h.

And the Tmax [3, 4]?
Its Tmax is 8 h.

What about the AUC inf [3, 5] of the same molecule?
Its AUC inf is 2286.053 µg·h/mL.

What about the AUClast [3, 5] of the same molecule?
Its AUClast is 1481.823 µg·h/mL.

What about the CL [3, 5] of the same molecule?
The CL was 0.17.

What about the Cmax [3, 5] of the same molecule?
The Cmax was 8.785158 µg/mL.

What about the MRT [3, 5] of the same molecule?
The MRT was 103.1 h.

And the Tmax [3, 5]?
Its Tmax is 8 h.

What about the AUC inf [3, 6] of the same molecule?
The AUC inf was 278.1948 µg·h/mL.

And the AUClast [3, 6]?
Its AUClast is 184.7575 µg·h/mL.

What about the CL [3, 6] of the same molecule?
Its CL is 0.18.

And the Cmax [3, 6]?
Its Cmax is 0.8244732 µg/mL.

And the MRT [3, 6]?
The MRT was 142.9087 h.

What about the Tmax [3, 6] of the same molecule?
Its Tmax is 48 h.

And the AUC inf [3, 7]?
Its AUC inf is 2635.62 µg·h/mL.

What about the AUClast [3, 7] of the same molecule?
Its AUClast is 1885.448 µg·h/mL.

What about the CL [3, 7] of the same molecule?
Its CL is 0.15.

And the Cmax [3, 7]?
The Cmax was 11.43293 µg/mL.

What about the MRT [3, 7] of the same molecule?
Its MRT is 102.1 h.

And the Tmax [3, 7]?
The Tmax was 48 h.
